Measured values from US20220160699, “MODULATORS OF TDP-43” (Alteron Therapeutics, Inc., published 2022).

Molecular target: TDP-43 (TARDBP) (UniProt Q13148 Q13148:1-414)
Assay: pulldown; streptavidin bead pulldown and anti-TDP-43 Western; 20 mM HEPES pH 7.5, 0.3% CHAPS, 150 mM NaCl, on ice/4 C; binding blocked by 30 uM ALT-59, and complex displaced by ALT-59
Conditions: tags: N-terminal His-Sumo, expressed in E. coli Rosetta (DE3) from pSumo/TDP43; label: 3' biotin
Method: Additional experiments were performed to confirm the direct binding of ALT-59 to TDP-43. One microgram of purified His-Sumo-TDP43 was incubated with 1 μg TG₁₂-biotin ([…]-biotin (SEQ ID NO: 1)) in binding buffer containing 20 mM HEPES, pH 7.5, 0.3% CHAPS, 150 mM NaCl, (Sigma-Aldrich), and protease inhibitor cocktail (Roche) for 4 hours on ice in the presence of carrier (50% Cremophor EL, 50% absolute ethanol) or 30 μM ALT-59 dissolved in carrier. Streptavidin magnetic beads (20 μl settled beads, GE Healthcare Life Sciences) were added to pull down the DNA-protein complex by rotating at 4° C. for 2 hours. After being washed 5 times with binding buffer, samples were boiled in protein sample buffer. In another experiment, DNA-protein complex bound to Streptavidin magnetic beads were washed and split into three parts, two of which were incubated with either carrier or ALT-59 for 4 hours with rotation at 4° C. to elute TDP-43 from TG₁₂-biotin-streptavidin. The third part and elutes were mixed with protein sample buffer and boiled. Protein samples from the above experiments were loaded onto 4-20% Tris-glycine gel (Invitrogen) for fractionation. Western blotting was performed using anti-TDP-43 antibody (Proteintech Group).

Sequence of TDP-43 (TARDBP) (Q13148 whole entry, one chain of several): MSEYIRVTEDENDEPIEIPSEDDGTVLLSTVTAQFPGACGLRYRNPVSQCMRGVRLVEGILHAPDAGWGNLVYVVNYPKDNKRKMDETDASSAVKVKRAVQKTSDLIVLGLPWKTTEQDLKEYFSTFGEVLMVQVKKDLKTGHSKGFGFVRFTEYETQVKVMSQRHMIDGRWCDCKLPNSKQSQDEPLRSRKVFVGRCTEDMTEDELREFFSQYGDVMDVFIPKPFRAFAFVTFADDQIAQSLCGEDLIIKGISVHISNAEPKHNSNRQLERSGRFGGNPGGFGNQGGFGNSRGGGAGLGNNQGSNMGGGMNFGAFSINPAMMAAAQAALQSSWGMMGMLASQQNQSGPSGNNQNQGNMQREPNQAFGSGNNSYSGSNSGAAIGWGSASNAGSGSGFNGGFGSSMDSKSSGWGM

TGTGTGTGTGTGTGTGTGTGTGTG (ssDNA) [TG12-biotin]: binds.
